# From the DeepSol protein solubility set
# Assay: soluble on expression in E. coli; label from the status in PepcDB or PDB records
row,Sequence,soluble on expression in E. coli
1,MAHHHHHHMHRFRVCALGAAFCVARRWRSGGGPGDRRVRTDWYRCYPSLMEEKDRDMYHCYYPYLFDHGDKMSLYPKIPDNPREWQVEQLQTTYDAIREDKYDAFVRLRAKFPELYQDTYAWDNPPPFGEFNMFYSVRFGMIGVKAFTCKDYDDLGNQFDCTAFWFPDNQIVKHSTRNGDVGTDKVYVGAMNVPVEFHKPHVAAFYKAAGVPVKHVSAGFPVTPDAYAPVGTKLDVRHFKPGQEVTITFQNTDYGYQGVMFRHGFDGGYVWLGDSKWQRRPGCMGAEGQKRIYPGHRMAGQTGASAETYDGVPVWRIDYKNSLIYLPTLIDADVGTYVKFRDTINTKGYTLWNEHRGTPPFPTFIPSEEEDLSKLATDEGQLTSPPLYMYFRDEFAAAQLVTQADVEDAKSAKPATAAPKKKVYDLKKYTEARKKYRKNLQKARKYKLMGVRTRAHEKQQEARRAKILKYKRVKT,not soluble
2,MAHHHHHHMHRGPGKRQTAPKEAAQYQFIKKWDLQMRETWDELEPFKGLPKPKVQFGNEAAEVIWPYALLLENVIKVHPYTKSIYVYYSQRQSTPLGELAARVAKRVSQAYLIPITFHNSHVYVEAEMLLEYSETPWVVVHCLDGTHKLIPVKPQAGQTVKEGAEEVLNGIVSACNEIGSAVKNPKEVMRLLSERPLQNQYVRVNYQWYGDTPEERMSHLVKWDYEPEEVVPQLRNRTQHVLDWMNYDGNLPTHNSVRVNIHREAARMRKPNVSAGPKTFFNSSGSRANARTARFDNSRSSQS,not soluble
3,MAHHHHHHMHTYTTQPCATSTSVPQLTRLSVSSSGHSPAVPTNWSIGRPTTLRCRDTDSDVHCNWGAIQGEDEEDKESLIGCATQVWRISAEVQMPLQCSHGTRATEEETLLGAPTSHCGDHLTNGRGVFASSPPIVWQPAPLPASFSASQIDLSGGGQDNAVLLSGAPVGSAEEETHNDNREVTRSNVIPATGDIAATESNDSFVGLEAAPRKGYARSNSGTPPRSDLGSPNNAANLQAHGRAANGVSAGVELVYRAAASETNSHHFGASLCANIGSGCRARLGIPAEWRDHMCAATPQGRGVWVQVPGQLRESEYPASTTTAEAVAARLAHISIHTSPTPKRLAFEEEELVERVSGGGSPTLIPAVRFVADGAARRGACNEASVAQGAGGSTEVGLLGRGAGGLSSSGMRWASVFGDSGHLELCSSRIPSGLQLLRSRKRCLDEMQATDTQERHADTLVTGGISDARDASYLVPDRVARMSLATPFENLEEDGDGDEEAVKRQRREEQRRMRLQHLLPASPNTMDDLIPAPARALGTAVAPCSSVSSSHVRSTVHGIQSTQDQQHQQDRTRNDDPASWSQVSSISYVTPASQSTSMGLWGVPGTLSQGHHGGAVVCSVGSGSQLLTPLPTNVMPQPSHKP,not soluble
4,MAHHHHHHMIAAIKTPAFQERVRAAMSREPTPADAEAVMKRYEEVQADYFTNHYNAEAGGICSSASAGAESRGTGGAGGRAKSSQDASEALAQQVDDMNLQEASDAPKLDGVEIVEQLKNAVRVYKEKETVRLITELCLLIESQVTALPATVPALRHLYSNSVYGSSAMEHAQAASAQAGGGESVLPVAQPSPQVMSMMGMAMRTLNPRQRETLERVQRAMMNGSPPLPEDMQDMLLIQRQLGAFMQTMQRFGQMPSGRGCGSGGRGGCGGQGGQ,soluble
5,MAHHHHHHMIDEKSKMYSKNDEFNVKKEMDMNLKCDNVNLDIWNTSFLNNETLNEDIFIHIGNKLLKMYYTTNHNIPSETLYSLLYEMKNGYNNVPYHNSIHAAMVTHHCNVLVSNLNTANILRDNELGALFVASLGHDIGHFGRTNIFLKNCCNFLSIIYNDKSILENYHCSYLFNILLKDENNIFKNEDPKCLLALRQQIIELILATDMSKHIKILAQFRIKSIKIKSYIEKNIILCLKMIIKAADLSHNCVDWSEHYQWVKRLVNEFYYEGDELFQMGYKINPLFDRNCHNNFIQIQRTFLKELVYPLIISLKTLDNTSITQDMINNVKRNYSKWTKIEKCQIKKKKYLNELLCNIPDNWARVYYPNLNIY,not soluble
6,MAHHHHHHMIEDNIDENCQIYLNPKNWLKEFENTKINENDINEVLMNYFCVHRMYDVAKEFQKESNVKPDMPINTVKIRYLIQNEIMNNKIEEAIEHINNLDKGILKKHKDLVFFLKKQQLLKLILNNNINEAIIYSQQELASYVKEKPSLINEIDDVMMLMAYQDFNNEEAKNLIQKIEKKKNTLKRIDDIILNYYNVDSESTLEYMVKNVFFTQNVLSSKYPCSVPKIKNLKSGYIEYYEKYKKKKRKSSSKKYRSKDKDKVDKHDKKNVDNIVKDFDVTNDEEYRSV,not soluble
7,MAHHHHHHMIGSFRIIRLPRTASSLRSLNGGQRSPHDDVVCGRQPQGLEGGRKGESVDGGIRPSFTRVGQLTDTYRTRRAGWLCQRDDRWTERRPFQPAGIFLEGGEEAGRVDLRLTDMQRIYDVGPISAENERFAASTLLYATDEVRSLLVEKEWIKLYCLHGVAAADDECNIAFVDLTEKLEDVKRVLVAWKEKDA,not soluble
8,MAHHHHHHMILKEETVLRKTNAENLAAVRNLNLWGEGLTDVSIVSRLPRIEVLALAANKLTTLSPFAACTQLEELYLRRNNVASMLEIKYLRHLPKLHTLWLMDNPCARHPHYRQIVILCCRHLRHLDETEVSEKERAEAEKLLPEGMLQEMLESESAEAAVGTANKAQLQNRTPVSERKQPMGEVVQGGAIHETGAGRERGHRVTSSDTSGRGPSSAPERRQGSADDGLAQTAVQVQRAMFSSIMALVPELAVQTIEALQKELAEELCRRGKRLPPVVRDRT,not soluble
9,MAHHHHHHMKATKAKSGNTATNAVPFNNAPLKIVFLDCDGVVSPFGGPLFAPRQMKFLADIINGSGAQIVLSSSWRTTDFGRKEVARQLTQFGMPVFIDCTPTLPDKPRSVEILSWIDSNKRKYNIVNFVALDDINLPLSAPDRNFFARHAIVTNATTGLTEANVKQALQMLSDTNNI,soluble
10,MAHHHHHHMKCELASLIKENAQLGREMRGTPQLRVPQETDVAWRLRRDVLLHSEYPHVAACPEKDVERKDGRAVVVFQESKLQGEPPERTAAQKRSRSDHTAVVSVDPSVLKARASSLGERIVGAAGPSFEPYTAPPSWKMAKVLVGHRGWVWGAAVDPSNSWFATGGGDGVVKVWDLTTGALKLNLTGHKEGVRALSLSTLSPYMFTGSDDHSVKCWDLERNEIIRDFHGHKGSVHCVSTHPSLDIVLSGGRDKTVRVWDVRTRSCVHLLLGHSDSVMSLAVQQEDPQAISGGSDGMVYLWDIASGRAFTRLTRHKKPVRGLALSRQRVLVSCGADNIRVWSLPTGEFLFNASTLDNGKETKKEKEQEPQRWSCCSVSPRNVLAVGSQEGRLLFFDWSHPQQGPYQATKTRSVPGTLPGEGGINGLAFDASGSRLITAESDKSAKVWRTKE,not soluble
11,MAHHHHHHMKDKLRAMGHPAMDAADREDSHAGCFSDSVGMQTYSLNTSLGAMHIMSRLNNEMSFVEDTASGSFGVVKKGVLDLDRQCYAVKQTKRVISGEGDLQQRLQEVYTLSACSHPNVLRYFDGWVEDRAVFVRTEWLSDGSVADFDRPFSEALLRSVIHQIASALHWLLCHHITHRDVKPENILARKMEDGTYTFKLADFGLARPLFRDRPNTGEEFRGTNDDDGDRRYLSPEAFAISEFSQQKGEADVYALGASCVELMGGDPSLVRNGCYTGNFHIYSAELQNLVQWMTRLDPQERPDAFMVALLTVDPALKSTRGFARRMAAIEGLRASVAELEKKVAETNATEKEEGGA,soluble
12,MAHHHHHHMKGGKQKFDRAIHKTEGMDGALPNEVLEPLEEVYKPSLRVDVTAEPPEENENSTGTTPVTSVTPHVSTNIFVAGLPPSWDENDLRKKFQEFGEIISTRLVRQRHFAFVMFRRPESAHAAINATHLTHPTPNSSMFLHVSIAMHDEGVDEIPNDRIFIRGLPQWANKDHLRHCFSRFGSIVDSAVLMNPLGQCKGSGFVQFSSIDEATEAIKARKTIRIENWDAELEIKYSETAEVRQQRQERNKNRQRHSPKYGQHQLQYQLFNSSASVVSPIPAFPVLGMSAPFPFFYPRPALSPAASPHIIYSPMVPSPVVPVYPSPPVVFKSKLDLFPSSGDLLFTGVSLTESTLLSLLQCYGKVESKDIFDDAGAAVRMVDRGLHAIIVQQLNGTIFPDGKVMSVVLYP,not soluble
13,MAHHHHHHMKGVIFCLVVLLWRQAWVSSKSHKCDFTKEKYLLSGEKEVSCEIDANPSDDITFICPNKIDSLCFHTVNISKNINQNKSTMSIQDLLYGSVVYGNTLFISPYVRTNTPFYCFCNLDTVTIQKFLKINRFLKDDDELSEADVMKHLKGGNVSEAQADEYLNKALNRFKKMKDLSKFFNDQADNTTKLNLPKSLNIPNDILNYDVYNSSNNRNDIVVKDEVTNKQIISKRGIMSVFVRSNNNVIKGCDFGNNNKNYFSHPISVAGKVNNKVCKIQGKPGELVGFKCAFEENGKVEPPNCFDQVLHKNKVTDLKTLIPGYASYTNKHSSKYPYYLKIPHFVNEQYTIQCKCKSNNSQNEYTFELDIQPGESEVVLNSFKTS,not soluble
14,MAHHHHHHMKKPEHVRNIVYEIKRKVQIPVSVKIRTGVDDCDSFPFLRSFIECVSSVGCTHFIVHARKAWLKGLDPKQNRSVPPLQYSKVYTLCQLYPHLKFTLNGGIKTIEEAVALLNGYLPREDKCDGEKTYVQVQNYHVNPLNGVMLGRACMENTTVLSQTDQLVYNEKPPHTAFSRRTVLDAYKSYLEENSSLCSLSSAFELLKPILGILKGMPGHRIFRNKVDMYIRNYSSTLPCSGILEKAMVDVDAVAPGCLDLPLADYKLQQEYIKNY,not soluble
15,MAHHHHHHMKLLLQADTPGGAAEREANPKYLSTDTLIIVPGHGVLNAPNASEWKNESEWCLEPHQLRAGVVLPLCFASHIRRGLEILRDQINTSILIFSGGQTCGIAGPRSEALGYYIVAKESKLFGIFEPEYVAKDIMNGRIFTEEFARDSYENLLFSIARFYEVTGHFPGSVVVVGWKHKAERFTMYHREAIRFPADKFTYVGLDFADAEPFVEDLQPYQVAKPYTDENALSSVSKDMYLCDAGRRTRSKRNPYFRVPPYLVSCPPLRQLLQHCGPELIDTRRVPWK,not soluble
16,MAHHHHHHMKLMLKKKKKGRKRKRSYYKEIESLFWTAEDYNFDKDKQYLENIDKNMLVKLFELICFYSLKDLHVYEEQALITSKMLDIIQIPEGRAFYGFQMCMENIHDEVYACIFETYIPDSKQKRVIINKVIELDSVLKKQKWLTEIFESNIPYYNKLVLLYISKVLFNGTLNILIGYCKENSILPCLCNVHEKIHRDEYLHGDFSVMCCNHLVNKLKYEHVLDYFKMAVDLEYQFSLEMLELNVLKIKKEQVRAFLEYLTDTMLTNLKYPKHYNSKYPFSWPEFTKIIVNENGKEETVKKGENVYGEKQILFDEDF,not soluble
17,MAHHHHHHMKLQKQQQQKRMTGLKEKRIACRLTYIWLSGRDSHHDIRSKDRTAYLTTEEVAKHPKELLADGIFPVWNFDGSSTKQVCGADTEILLNPVNAYHCCLPRLSTTVPWILVLAECCLPNGEPTNDNSRAVARRIFERAPEEHPWFGMEQEFFLIKDGHPYGWPPRGFPAPQGPYYCSTGCLCVHGRRYVDLHYEVCLQMGLNISGTNAEVAPGQWEFQVGPCEGIEMGDQLTVARWVLLRILEDDGLDADYRAKPIRGEWNGSGLHTNFSTASTRNENGLSVIYEYVERLKKTISKDIVLYGAENNERLTGKYETSKPNEVTAGVGTRGTSIRIPNAVAAERKGYMEDRRPAGDADPYLVSARLFASCVCIESPELDLISSFHERSWMKFGDLS,soluble
18,MAHHHHHHMKQSDFIFFVLRFWHFVPPYIIEKYAVSAFLNEDFLRAIRLKIEELRPPGRREPHSCVLKEHSDTSFTRKEVLPPPERLSNPVAMDHWVLYEPKVQNFPLVDGFFLVDSNPMTLVGLRMTTAGEHRTTTSTVRQFTECLAAYFNGWEELSRDMSWEIINVQHADSTPINDWQRCDVVDSDNVSRAENREIAAFWEEEVRQYIAAVSSGDF,not soluble
